Test [1] addresses RAGE peptide (Sino Biological), receptor for advanced glycation end products (UniProt Q15109). Briefly: SPR; RANK or RAGE (5 μg/ml in 10 mM sodium acetate, pH 5.5) immobilised on the sensor chip; AOPPs 350 to 1050 μg/ml injected, 1050 μg/ml RSA as vehicle; 25 °C, 30 μl/min; PlexArray HT A100. (SPR reads the build-up and loss of mass on a sensor chip optically.)
The target in test [2] is RANK peptide (Sino Biological), receptor activator of nuclear factor κ B (UniProt Q9Y6Q6). The description is as above.
UniProt Q9Y6Q6, sequence (Q9Y6Q6 30-212): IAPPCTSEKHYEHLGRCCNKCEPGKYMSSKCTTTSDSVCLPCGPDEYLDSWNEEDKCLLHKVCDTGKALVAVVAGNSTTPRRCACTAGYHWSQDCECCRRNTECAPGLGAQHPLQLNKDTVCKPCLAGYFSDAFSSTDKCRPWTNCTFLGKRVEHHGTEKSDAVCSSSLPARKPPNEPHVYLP

UniProt Q15109, sequence (Q15109 23-342): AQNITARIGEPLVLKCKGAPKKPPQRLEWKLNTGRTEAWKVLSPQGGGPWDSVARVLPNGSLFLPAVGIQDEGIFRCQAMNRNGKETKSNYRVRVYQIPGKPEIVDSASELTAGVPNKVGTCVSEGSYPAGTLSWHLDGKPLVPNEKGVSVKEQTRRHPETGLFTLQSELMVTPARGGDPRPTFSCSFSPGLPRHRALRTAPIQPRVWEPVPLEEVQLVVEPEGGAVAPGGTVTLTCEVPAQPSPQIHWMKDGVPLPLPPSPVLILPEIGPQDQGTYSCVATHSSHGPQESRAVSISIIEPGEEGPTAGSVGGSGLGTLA

In the case of “Advanced oxidation protein products (AOPPs), prepared from rat serum albumin with hypochlorous acid (from UniProt P02770 25-608)”, the equilibrium dissociation constant (Kd) (as a rule, a measure of binding affinity in units of concentration) in test [1] worked out at 1340 nM; in test [2], 3020 nM.
